Source: patent US11834472B2, “Anti-IL-22 antibodies, antibody fragments, their immunoconjugates and uses thereof” (BioAtla, Inc., priority 2018, dated 2023)

Assays:
[1] = target: T1, mouse IL-22 (mIL-22) (Mus musculus, UniProt Q9JJY9); assay: Inhibition of mIL-22 induced Stat3 phosphorylation in HepG2 cells; format: cell-based; conditions: mAb 6.7 nM
T1 sequence (Q9JJY9 34-179): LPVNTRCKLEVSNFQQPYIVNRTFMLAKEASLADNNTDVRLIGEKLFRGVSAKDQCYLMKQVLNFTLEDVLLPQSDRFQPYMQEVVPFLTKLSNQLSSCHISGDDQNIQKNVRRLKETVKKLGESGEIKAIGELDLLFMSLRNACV
Procedure: One of the immediate functions of IL-22 is inducing phosphorylation of Stat3, a protein in the signaling pathway of IL-22. The 10 antibodies of Table 1 were tested in a cell-based assay for blocking IL-22-dependent phosphorylation of Stat3 through human or mouse IL-22 in HepG2 cells. Antibody hum10 and mutant CPE-LC-E049K were used as controls. Four concentrations of each of the antibodies were used: 0.11 μg/mL, 0.33 μg/mL, 1 μg/mL, and 3 μg/mL.
30,000 human HepG2 cells were seeded in 96 well plates and serum starved overnight. Three-fold dilutions of anti-IL-22 antibodies and control hum10 antibody at concentrations of 0.11 μg/mL, 0.33 μg/mL, 1 μg/mL, and 3 μg/mL were incubated with 200 ng/ml of hIL-22 or mIL-22 at 37° C. for one hour then added to the serum starved human HepG2 cells. The HepG2 cells were incubated with the antibody-IL-22 mixture at 37° C. for 20 minutes. After incubation, HepG2 cells were washed with PBS and lysed. Half of the cell lysate was used to determine the level of phosphorylated Stat3 using Cell Signaling kit #7300 following the vendor's protocol and the other half of the cell lysate was used to determine the level of total Stat3 by Western blot analysis using a Santa Cruz rabbit polyclonal antibody (Sc-7179) against human Stat3.

[2] = target: T2, mIL22 (Mus musculus, UniProt Q9JJY9); assay: Affinity ELISA mIL22; format: binding
T2 sequence (Q9JJY9 34-179): T1 sequence (Q9JJY9 34-179)
Text: The CPE™ library was screened for antibodies that were able to bind to both human IL-22 and mouse IL-22 with high affinity. Specifically, the CPE™ variants were screened by affinity ELISA for mouse IL-22 (mIL-22) binding affinity. The hum10 was included in every affinity ELISA plate as a control. The CPE™ variants with increased binding affinity to mIL-22 compared to hum10 were scored as primary CPE™ hits. The primary CPE™ hits were re-arrayed, re-transfected, and screened again by affinity ELISA and also by titration ELISA using both mIL-22 and human IL-22 (hIL-22) for antibodies that bind to both mIL-22 and hIL-22. These 10 mutant antibodies were selected based on ELISA data and sequence diversity, ability to scaled up and purified.

B1: hum10: parent humanized monoclonal antibody against human IL-22; light chain variable region SEQ ID NO: 19, heavy chain variable region SEQ ID NO:20 (antibody, V domains shown)
VH: QVQLVQSGAEVKKPGASVKVSCKASGYIFTSYWIHWIRQPPGKGLEWIGRIYPGTGNTYYNEKFKGRVTISADKSISTAYLQWSSLKASDTAMYYCARSYDSSCAYWGQGTLVTVSS
VL: AIQLTQSPSSLSASVGDRVTITCSASSSVSYMHWYLQKPGQSPQLLIYETSKLASGVPSRFSGSGSGTDFTFTISSLEAEDAATYYCQQWSSNPYITFGQGTKVEIKR
modifications: Synthetic sequence hum10-HC; Synthetic sequence hum10-LC
- STAT3 Phosphorylation; mIL22 % inhibition [1]: no inhibition
- Affinity ELISA mIL22 50% max signal mAb ([2]; first mIL22 line of Table 3): no binding
- Affinity ELISA mIL22 50% max signal mAb ([2]; second mIL22 line of Table 3): no binding
